Three molecules from publication PMC8262405 (Molecular cell, 2021) can be followed below.

The chains are these.
B1: Rad51 (natural protein, S. cerevisiae, UniProt P25454 1-400, looked up)
chain: MSQVQEQHISESQLQYGNGSLMSTVPADLSQSVVDGNGNGSSEDIEATNGSGDGGGLQEQAEAQGEMEDEAYDEAALGSFVPIEKLQVNGITMADVKKLRESGLHTAEAVAYAPRKDLLEIKGISEAKADKLLNEAARLVPMGFVTAADFHMRRSELICLTTGSKNLDTLLGGGVETGSITELFGEFRTGKSQLCHTLAVTCQIPLDIGGGEGKCLYIDTEGTFRPVRLVSIAQRFGLDPDDALNNVAYARAYNADHQLRLLDAAAQMMSESRFSLIVVDSVMALYRTDFSGRGELSARQMHLAKFMRALQRLADQFGVAVVVTNQVVAQVDGGMAFNPDPKKPIGGNIMAHSSTTRLGFKKGKGCQRLCKVVDSPCLPEAECVFAIYEDGVGDPREEDE

Experiment [1] addresses T1, GFP-Rad55-Rad57 complex (His6-GFP-Rad55 and FLAG-Rad57) (S. cerevisiae, UniProt P38953 1-406; P25301 1-460).
T1 sequence (looked up) 1: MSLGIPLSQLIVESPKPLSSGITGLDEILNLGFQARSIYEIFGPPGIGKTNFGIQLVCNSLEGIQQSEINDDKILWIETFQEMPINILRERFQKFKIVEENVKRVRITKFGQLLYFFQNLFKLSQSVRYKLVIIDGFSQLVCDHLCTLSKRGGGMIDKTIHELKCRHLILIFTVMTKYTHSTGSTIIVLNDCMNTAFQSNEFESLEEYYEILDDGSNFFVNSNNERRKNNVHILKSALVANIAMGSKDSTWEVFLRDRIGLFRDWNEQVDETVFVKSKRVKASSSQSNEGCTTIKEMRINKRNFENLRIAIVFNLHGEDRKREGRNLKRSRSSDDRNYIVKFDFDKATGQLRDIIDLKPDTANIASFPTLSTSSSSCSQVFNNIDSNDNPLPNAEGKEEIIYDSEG
T1 sequence (looked up) 2: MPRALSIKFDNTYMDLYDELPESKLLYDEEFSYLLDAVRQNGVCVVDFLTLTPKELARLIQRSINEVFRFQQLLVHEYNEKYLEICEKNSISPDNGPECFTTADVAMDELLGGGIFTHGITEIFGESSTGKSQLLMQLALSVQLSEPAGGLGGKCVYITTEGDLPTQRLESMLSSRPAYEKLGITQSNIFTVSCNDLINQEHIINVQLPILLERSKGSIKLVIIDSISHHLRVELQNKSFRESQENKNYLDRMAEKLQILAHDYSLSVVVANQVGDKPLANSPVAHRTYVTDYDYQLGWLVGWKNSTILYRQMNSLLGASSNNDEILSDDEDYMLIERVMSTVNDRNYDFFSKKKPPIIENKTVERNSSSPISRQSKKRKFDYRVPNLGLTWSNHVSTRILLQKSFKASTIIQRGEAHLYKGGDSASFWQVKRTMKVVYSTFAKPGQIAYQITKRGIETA
Nature of the experiment: single-molecule ssDNA curtain.

The target in the experiment “Rad51” is B1. Nature of the experiment: single-molecule ssDNA curtain.

Molecule B1 showed a dissociation rate constant (koff) in experiment [1] of 0.00758 s⁻¹.

B2: Rad51-K191R (natural protein, S. cerevisiae, UniProt P25454 1-400, looked up)
chain: MSQVQEQHISESQLQYGNGSLMSTVPADLSQSVVDGNGNGSSEDIEATNGSGDGGGLQEQAEAQGEMEDEAYDEAALGSFVPIEKLQVNGITMADVKKLRESGLHTAEAVAYAPRKDLLEIKGISEAKADKLLNEAARLVPMGFVTAADFHMRRSELICLTTGSKNLDTLLGGGVETGSITELFGEFRTGRSQLCHTLAVTCQIPLDIGGGEGKCLYIDTEGTFRPVRLVSIAQRFGLDPDDALNNVAYARAYNADHQLRLLDAAAQMMSESRFSLIVVDSVMALYRTDFSGRGELSARQMHLAKFMRALQRLADQFGVAVVVTNQVVAQVDGGMAFNPDPKKPIGGNIMAHSSTTRLGFKKGKGCQRLCKVVDSPCLPEAECVFAIYEDGVGDPREEDE
Take B2: the koff in experiment [1] came out at 0.0058 s⁻¹. This koff and that of the molecule before are within 1.5-fold of each other.

B3: Hed1-GFP (natural protein, S. cerevisiae, UniProt Q03937 1-162, looked up)
chain: MQQRSNRRSCSYIPLGVHNNAEKSLCTEVAPARKNKRSITTSPIVNINVVERRLFNLELEKQQLRAKNLSENTGGGSPNGGAYLDAKKGVREQDQYQGGPSKELDRLQPPPSMKKSPPRKKKSLKDLIYETNKTFYQVDSNKVKYKVGLSKKQLLPSKTVDN
Regarding B3, the binding result with Rad51 is listed as “binds”.
